Patent publication US10751422B2, “Antibody drug conjugates (ADC) that bind to FLT3 proteins” (AGENSYS, INC., priority 2015, dated 2020)

Tests used:
[1] = tested on: Raji; assay: ADCC activity in vitro (CytoTox 96 LDH assay), positive control cell line Raji; format: cell-based; conditions: effector normal human PBMC, E:T=100:1, 2.5 ug/mL, 4 hours
[2] = molecular target: Flt3 protein (Homo sapiens, UniProt P36888); assay: Binding of hybridoma MAb to Flt3 protein and Flt3 expressing cells; conditions: recombinant and endogenous cells
From the text: MAbs to FLT3 were generated using VelocImmune® technology (Regeneron, Tarrytown, N.Y.) wherein genetically engineered mice make antibodies that have fully human variable regions and mouse constant regions. The MAb designated v62-1b21 (also known as AGS62.21) was generated after immunizing VelocImmune® mice with recombinant human FLT3 protein.

[3] = tested on: RS-4-11; format: cell-based, human
Protocol: Briefly, The RS-4-11 cells were seeded in 50 μl of complete media at a density of 3000 cells per well onto 96 well plates and placed in a tissue culture incubator at 37° C.; 5% CO2. The next day, the ADCs were prepared in complete media at 10 μg/mL and serially diluted 1:5 for a total of 9 points. […] At the end of the incubation period, 20 μl of Presto Blue was added to each well and incubated for 2 hours. The plates were read using a BioTek Synergy H4 plate reader using 540 Excitation and 590 Emission wavelengths and graphed using Graphpad Prism software.

[4] = tested on: EOL-1; assay: EOL-1 cell growth with human FLT3 ligand and antibody (Cell Titer Glo, 5 days); format: cell-based; conditions: 50, 10 or 5 ng/mL, no antibody
Protocol: The ability of FLT3 antibodies (CHv62.21 and v62-1b37.1) to mediate the effect of human FLT3 ligand was evaluated using the human leukemia EOL-1 cell line, which endogenously expresses FLT3. Isotype control antibody (mLys-1c3.1) was also used. […] The next day, cells were treated with 50, 10 or 5 ng/mL of human FLT3 ligand (in 25 μl of complete media) and 10, 1, 0.1 and 0 μg/mL of test antibody (in 25 μl of complete media). Media alone was used as the untreated control. […] At the end of the incubation period, 100 μl of Cell Titer Glo was added to each well and incubated for 30 minutes, shaking, at room temperature.

Rituximab
ADCC activity [1]: confirms ADCC activity

B1: v62-1b21: hybridoma FLT3 MAb from VelocImmune mice, fully human variable regions and mouse constant regions (antibody, V domains shown)
VH: EVQLVESGGGLVRPGGSLRLSCAASGFTFSGYSINWVRQAPGKGLEWVSSISSSSNYIYYADSVKGRFTISRDNAKNSLYLQMNSLRAEDTAVYYCAREGFIAGTTFDAFDIWGQGTMVTVSS
VL: DIQMTQSPSSLSASVGDRVTITCRASQGIRNDLGWYQQKPGKAPKRLIYAASSLQSGVPSRFSGSGSGTEFTLTISSLQPEDFATYYCLQHNGFPYTFGQGTKLEIKR
binding to Flt3 protein and Flt3 expressing cells [2]: specifically binds to Flt3 protein and Flt3 expressing cells

B2: v62-1b21.1-AGL-0129-08 (conjugate)
VH: EVQLVESGGGLVRPGGSLRLSCAASGFTFSGYSINWVRQAPGKGLEWVSSISSSSNYIYYADSVKGRFTISRDNAKNSLYLQMNSLRAEDTAVYYCAREGFIAGTTFDAFDIWGQGTMVTVSS
VL: DIQMTQSPSSLSASVGDRVTITCRASQGIRNDLGWYQQKPGKAPKRLIYAASSLQSGVPSRFSGSGSGTEFTLTISSLQPEDFATYYCLQHNGFPYTFGQGTKLEIKR
cytotoxicity [3]: can induce cytotoxicity

B3: Human FLT3 ligand: human FLT3 ligand, purchased from R and D Systems (protein)
chain: TQDCSFQHSPISSDFAVKIRELSDYLLQDYPVTVASNLQDEELCGGLWRLVLAQRWMERLKTVAGSKMQGLLERVNTEIHFVTKCAFQPPPSCLRFVQTNISRLLQETSEQLVALKPWITRQNFSRCLELQCQPDSSTLPPPWSPRPLEATAPTAPQPP
effect of human FLT3 ligand alone on growth of EOL-1 cells [4]: has no effect on growth
